Source: publication PMC7407159

Target: T1, histidine tagged full length homo sapiens mitofusin 1 (hsMfn1) (human), Q8IWA4
T1 chain: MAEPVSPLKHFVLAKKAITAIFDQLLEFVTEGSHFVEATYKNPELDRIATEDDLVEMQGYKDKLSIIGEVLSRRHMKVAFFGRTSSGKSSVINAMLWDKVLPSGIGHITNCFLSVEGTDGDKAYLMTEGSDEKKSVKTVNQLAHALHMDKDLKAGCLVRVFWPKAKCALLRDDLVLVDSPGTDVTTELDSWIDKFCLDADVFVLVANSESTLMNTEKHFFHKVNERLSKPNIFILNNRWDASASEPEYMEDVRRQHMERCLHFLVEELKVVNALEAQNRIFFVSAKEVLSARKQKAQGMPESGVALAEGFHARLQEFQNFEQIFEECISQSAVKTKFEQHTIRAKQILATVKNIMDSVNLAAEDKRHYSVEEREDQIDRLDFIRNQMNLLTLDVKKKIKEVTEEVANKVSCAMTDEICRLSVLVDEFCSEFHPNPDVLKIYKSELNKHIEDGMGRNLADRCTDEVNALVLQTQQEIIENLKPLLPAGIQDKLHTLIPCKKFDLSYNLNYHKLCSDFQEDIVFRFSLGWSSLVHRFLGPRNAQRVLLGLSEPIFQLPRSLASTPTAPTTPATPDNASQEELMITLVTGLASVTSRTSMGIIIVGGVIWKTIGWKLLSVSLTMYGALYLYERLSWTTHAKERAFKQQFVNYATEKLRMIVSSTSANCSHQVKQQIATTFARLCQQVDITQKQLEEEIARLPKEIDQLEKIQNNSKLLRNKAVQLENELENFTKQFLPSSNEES
Experiment: vesicle adhesion (shape of adhered GUV doublets by confocal microscopy), adhesion strength fitted to a cooperative binding model; His-Mfn1 (detergent resistant fraction of Mfn1-IMVs) bound by its histidine tag to POPC/DOGS-NTA GUVs with 10, 15, 20 and 25 mol% DOGS-NTA; 10 mM GDP, 2.5 mM …; 22 °C; Eadh against [NTA] fitted to Equation (6); two-dimensional binding equilibrium constant for planar membranes, Mfn1 with …
Details: remark: other sources report otherwise

B1: histidine tagged full length homo sapiens mitofusin 1 (hsMfn1), Q8IWA4 1-741 (natural protein)
chain: T1 chain
- two-dimensional binding equilibrium constant for planar membranes (K2D' of Equation 6, printed as KD') (nm^2 per molecule): 0.1
